Reference: PMC10266124 (mAbs, 2023)

Target: Biotinylated SARS-CoV-2 spike S1 protein (SARS-CoV-2, Wuhan, UniProt P0DTC2, biotin (biotinylated))
Assay: SPR

Binder	binding result
mAb25 (S2M11) (antibody, V domains shown) VH: EVQLVQSGAEVKKPGASVKVSCKASGYTFTGYYMHWVRQAPGQGLEWMGWINPISSGTSYAQTFQGRVTMTSDTSITTAYMELSRLRSDDTAVYYCARAAPFYDFWSGYSYFDYWGQGTLVTVSS VL: not shown	binds
mAb10 (52) (antibody, V domains shown) VH: QVQLVQSGAEVKKPGSSVKVSCKASGYTFTSYGISWVRQAPGQGLEWMGGIIPMFGTTNYAQKFQGRVTITADKSTSTAYMELSSLRSEDTAVYYCARDRGDTIDYWGQGTLVTVSS VL: DIQMTQSPSSLSASVGDRVTITCRASQGISNNLNWYQQKPGKAPKLLIYAASSLESGVPSRFSGSGSGTDFTLTISSLQPEDFATYYCQQGNGFPLTFGPGTKVDIK	binds
mAb16 (C121) (antibody, V domains shown) VH: not shown VL: QSALTQPASVSGSPGQSITISCTGTSSDVGSYNLVSWYQQHPGKAPKLMIYEGSKRPSGVSNRFSGSKSGNTASLTISGLQAEDEADYYCCSYAGSSTLVFGGGTKLTVL	binds
mAb19 (CV07-270) (antibody, V domains shown) VH: QVQLVESGGGLVKPGGSLRLSCAASGFTFSDYYMTWIRQAPGKGLEWVSYISSSGSTIYYADSVKGRFTISRDNAKNSLYLQMNSLRAEDTAVYYCARARGSSGWYRIGTRWGNWFDPWGQGTLVTVSS VL: QSALTQPASVSGSPGQSITISCTGTSSDVGGYNYVSWYQQHPGKAPKLMIYEVSNRPSGVSNRFSGSKSGNTASLTISGLQAEDEADYYCSSYTSSSNVVFGGGTMLTVL	binds
mAb15 (C119) (antibody, V domains shown) VH: QVQLVQSGAEVKKPGASVKVSCKASGYTFTSYYMHWVRQAPGQGLEWMGIINPSGGSTSYAQKLQGRVTMTRDTSTSTVYMELSSLRSEDTAVYYCARANHETTMDTYYYYYYMDVWGKGTTVTVSS VL: QSALTQPASVSGSPGQSITISCTGTSSDVGGYKYVSWYQRHPGKAPKLMIYDVSNRPSGVSNRFSGSKSGNTASLTISGLQAEDEADYYCSSYTSSSTSVVFGGGTQLTVL	binds
mAb22 (S304) (antibody, V domains shown) VH: VQLVESGGGLVQPGGSLRLSCAASGFTFSSYDMHWVRQTTGKGLEWVSTIGTAGDTYYPDSVKGRFTISREDAKNSLYLQMNSLRAGDTAVYYCARGDSSGYYYYFDYWGQGTLLTVSS VL: DIEMTQSPSSLSAAVGDRVTITCRASQSIGSYLNWYQQKPGKAPKLLIYAASSLQSGVPSRFSGSGSGTDFTLTISSLQPEDFAIYYCQQSYVSPTYTFGPGTKVDIK	binds
mAb08 (B38) (antibody, V domains shown) VH: EVQLVESGGGLVQPGGSLRLSCAASGFIVSSNYMSWVRQAPGKGLEWVSVIYSGGSTYYADSVKGRFTISRHNSKNTLYLQMNSLRAEDTAVYYCAREAYGMDVWGQGTTVTVSS VL: DIVMTQSPSFLSASVGDRVTITCRASQGISSYLAWYQQKPGKAPKLLIYAASTLQSGVPSRFSGSGSGTEFTLTISSLQPEDFATYYCQQLNSYPPYTFGQGTKLEIK	binds
mAb18 (CV07-250) (antibody, V domains shown) VH: QVQLVQSEAEVKEPGASVEVSCKASGYNFTNFAISWVRQAPGQGLEWMGWISGYNGDTNSAQKFLGRVTMTTDTSTTTAYMELRSLRSDDTAVYYCAGSDNYGFPYNGMDVWGQGTTVTVFN VL: QSALTQPPSASGSPGQSVTISCTGTSSDLGAYHFVTWYQHYPGKAPKVMIYGVRKRPSGVPDRFSGSKSGNTASLTVSGLQDEDEADYYCSSYAGNNDFVFGGGTKLTVL	binds
mAb09 (etesevimab) (antibody, V domains shown) VH: EVQLVESGGGLVQPGGSLRLSCAASGFTVSSNYMSWVRQAPGKGLEWVSVIYSGGSTFYADSVKGRFTISRDNSMNTLFLQMNSLRAEDTAVYYCARVLPMYGDYLDYWGQGTLVTVSS VL: not shown	binds
mAb14 (C002) (antibody, V domains shown) VH: EVQLVESGGGVVQPGRSLRLSCAASGFTFSIYGMHWVRQAPGKGLEWVAVISYDGSNKYYADSVKGRFTISRDNSKNTLYLQMNSLRAEDTAVYYCAKEGRPSDIVVVVAFDYWGQGTLVTVSS VL: not shown	binds
mAb02 (casirivimab) (antibody, V domains shown) VH: QVQLVESGGGLVKPGGSLRLSCAASGFTFSDYYMSWIRQAPGKGLEWVSYITYSGSTIYYADSVKGRFTISRDNAKSSLYLQMNSLRAEDTAVYYCARDRGTTMVPFDYWGQGTLVTVSS VL: DIQMTQSPSSLSASVGDRVTITCQASQDITNYLNWYQQKPGKAPKLLIYAASNLETGVPSRFSGSGSGTDFTFTISGLQPEDIATYYCQQYDNLPLTFGGGTKVEIK	binds
mAb23 (COVA1-16) (antibody, V domains shown) VH: QVQLVQSGAEVKKPGASVKVSCKASGYTFTSYYMHWVRQAPGQGLEWMGIINSSGGSTSYAQKFQGRVTMTRDTSTSTVYMELSSLRSEDTAVYYCARPPRNYYDRSGYYQRAEYFQHWGQGTLVTVSS VL: DIQLTQSPSSLSASVGDRVTITCQASQDISNYLNWYQQRPGKAPKLLIYDASNLETGVPSRFSGSGSGTDFTFTISSLQPEDIATYYCQQYDNPPLTFGGGTKLEIK	binds
mAb24 (S2E12) (antibody, V domains shown) VH: not shown VL: DIVLTQTPGTLSLSPGERATLSCRASQSVSSSYLAWYQQKPGQAPRLLIYGASSRATGIPDRFSGSGSGTDFTLTISRLEPEDFAVYYCQQYVGLTGWTFGQGTKVEIK	binds
mAb03 (imdevimab) (antibody, V domains shown) VH: QVQLVESGGGVVQPGRSLRLSCAASGFTFSNYAMYWVRQAPGKGLEWVAVISYDGSNKYYADSVKGRFTISRDNSKNTLYLQMNSLRTEDTAVYYCASGSDYGDYLLVYWGQGTLVTVSS VL: QSALTQPASVSGSPGQSITISCTGTSSDVGGYNYVSWYQQHPGKAPKLMIYDVSKRPSGVSNRFSGSKSGNTASLTISGLQSEDEADYYCNSLTSISTWVFGGGTKLTVL	binds
mAb27 (H014) (antibody, V domains shown) VH: EVQLVQSGAEVKKPGATVKISCKVSGYSFSNYYIHWVKQAPGKSLEWIGYIDPFNGGTSDNLKFKGAATLTADTSTDTAYMELSSLRSEDTAVYYCARSEYDPYYVMDYWGQGTTVTVSS VL: IVLTQSPFQSVSPKEKVTITCRASQSISSNLHWYQQKPDQSPKLLIKYASQSISGIPSRFSGSGSGTDFTLTINSLEAEDFGIYFCQQTNFWPYIFGQGTKLEIL	binds
mAb21 (S2A4) (antibody, V domains shown) VH: EVQLVESGGGLVQPGGSLRLSCAASGFTFSSYWMNWVRQAPGKGLEWVANIKQDGSEKYYVDSVKGRFTISRDNAKNSLFLQMNSLRAEDTAVYYCARVWWLRGSFDYWGQGTLVTVSS VL: NFMLTQPHSVSESPGKTVTISCTGSSGSIASNYVQWYQQRPGSAPTTVIYEDNQRPSGVPDRFSGSIDSSSNSASLTISGLKTEDEADYYCQSYDSSNHVVFGGGTKLTVL	binds
mAb01 (bamlanivimab) (antibody, V domains shown) VH: QVQLVQSGAEVKKPGSSVKVSCKASGGTFSNYAISWVRQAPGQGLEWMGRIIPILGIANYAQKFQGRVTITADKSTSTAYMELSSLRSEDTAVYYCARGYYEARHYYYYYAMDVWGQGTAVTVSS VL: not shown	binds
mAb26 (4A8) (antibody, V domains shown) VH: EVQLVESGAEVKKPGASVKVSCKVSGYTLTELSMHWVRQAPGKGLEWMGGFDPEDGETMYAQKFQGRVTMTEDTSTDTAYMELSSLRSEDTAVYYCATSTAVAGTPDLFDYYYGMDVWGQGTTVTVSS VL: EIVMTQSPLSSPVTLGQPASISCRSSQSLVHSDGNTYLSWLQQRPGQPPRLLIYKISNRFSGVPDRFSGSGAGTDFTLKISRVEAEDVGVYYCTQATQFPYTFGQGTKVDIK	binds
mAb11 (298) (antibody, V domains shown) VH: QVQLVQSGAEVKKPGASVKVSCKASGGTFSTYGISWVRQAPGQGLEWMGWISPNSGGTDLAQKFQGRVTMTRDTSTSTVYMELSSLRSEDTAVYYCASDPRDDIAGGYWGQGTLVTVSS VL: not shown	binds
mAb29 (regdanvimab) (antibody, V domains shown) VH: QITLKESGPTLVKPTQTLTLTCSFSGFSLSTSGVGVGWIRQPPGKALEWLALIDWDDNKYHTTSLKTRLTISKDTSKNQVVLTMTNMDPVDTATYYCARIPGFLRYRNRYYYYGMDVWGQGTTVTVSS VL: ELVLTQPPSVSAAPGQKVTISCSGSSSNIGNNYVSWYQQLPGTAPKLLIYDNNKRPSGIPDRFSGSKSGTSATLGITGLQTGDEADYYCGTWDSSLSAGVFGGGTELTVL	binds
